According to US20220259284A1, “CA2 COMPOSITIONS AND METHODS FOR TUNABLE REGULATION” (Obsidian Therapeutics, Inc., priority 2019, published 2022):

What was measured:
[1] = tested on: CD40L constructs regulated by Carbonic anhydrase DDs in T cells; test: Acetazolamide dose response of CD40L expression in transduced T cells, FACS (MFI, % CD40L positive); type: cell-based, human; details: for CD40L MFI / Percentage CD40L positive cells: 24 hours; for CD40L MFI: FACS
Experimental: (§1) CD40L constructs regulated by Carbonic anhydrase DDs were generated and cloned into lentiviral vectors. Purified T cells were thawed and cultured with aCD3 aCD28 Dynabeads (in the ratio of 3 beads to 1 T cell).
The constructs were transduced in T cells the next day. […] 24 hours after the addition of ligand T cells were stained for CD40L expression and analyzed using FACS.

[2] = tested on: CA2 regulated CD40L in activated T cells; test: Regulation of CD40L in T cells by CA2, percent of cells expressing CD40L (surface expression); type: cell-based, human; details: ligand N/A
Experimental: To test regulation, activated T cells were lentivirally transduced with CA2 regulated CD40L (OT-001990) and a control of CD40L (OT-001661). Two days later, cells were treated with vehicle or […] ligand for 24h as described in Table 14 after which they were analyzed for CD40L surface expression. In the table, “Acz” is Acetazolamide.

[3] = tested on: CA2 regulated CD40L in activated T cells; test: as above; type: cell-based, human; details: All Cells, ligand N/A
[4] = tested on: CD40L constructs regulated by Carbonic anhydrase DDs in T cells; test: Time course regulation of CD40L in transduced T cells, FACS (MFI, % CD40L positive); type: cell-based, human; details: constitutive CD40L
Experimental: as §1
A control of empty vector (EV) and constitutive CD40L (OT-001661; amino acid SEQ ID NO. 6067 and nucleic acid SEQ ID NO. 6068) was also evaluated. Cells were fixed at 2, 4, 6, 8, 24, and 48 hours and then T cells were stained for CD40L expression and analyzed using FACS. The results are shown as median fluorescence intensity in Table 12 and as percentage CD40L positive cells in Table 13.

[5] = tested on: monocyte derived dendritic cells (DCs), Nalm6; test: IFNg and IL-12 in supernatant of DC + Nalm6 + CAR+ T cell co-culture, MSD; type: cell-based; details: DC + T cells + Nalm6, no ligand stated, supernatant 24 hours
Experimental: To measure the effect of CD40L expression that is tuned by the biocircuits of the present disclosure in the context of CARs, T cells expressing any of the CA2 CD40L-CAR constructs described herein were co-cultured with monocyte derived dendritic cells (DCs).
In vitro cultures were set up by adding 1×10^4 DCs into culture with 1×10^5 Nalm6 and 1×10^5 CAR+ T cells. […] Supernatants were collected 24 hours later and analyzed for IFNg and IL-12 by MSD assay. OT-001661 (SEQ ID NO. 6067; encoded by SEQ ID NO. 6068), that expressed CD40L payloads constitutively was used as control.

CD40L in HEK293T cells = test: Soluble CD40L (shedding) in medium of transfected HEK293T cells, ELISA; type: cell-based, human; details: HEK293T cell culture medium, no ligand stated, Repeat 1

For CC(=O)Nc1nnc(S(N)(=O)=O)s1 [Acetazolamide], the “CD40L MFI” value ([1]; CD4+ T cells with CA2 DD CD40L construct (OT-001990), Acetazolamide 0.01 μM) was 112, the “Percentage CD40L positive cells” value ([1]; CD4+ T cells with CA2 DD regulated CD40L construct, Acetazolamide 0.01 μM) was 4.13% and the “Percentage CD40L positive cells” value ([1]; CD4+ T cells with CA2 DD regulated CD40L construct, Acetazolamide 0.05 μM) was 5.44%. The “Percentage CD40L positive cells” value ([1]; CD4+ T cells with CA2 DD regulated CD40L construct, Acetazolamide 0.2 μM) was 10.3%, the “Percentage CD40L positive cells” value ([1]; CD4+ T cells with CA2 DD regulated CD40L construct, Acetazolamide 0.8 μM) was 45.6% and the “Percentage CD40L positive cells” value ([1]; CD4+ T cells with CA2 DD regulated CD40L construct, Acetazolamide 3.1 μM) was 69.3%. For the same molecule, the “Percentage CD40L positive cells” value ([1]; CD4+ T cells with CA2 DD regulated CD40L construct, Acetazolamide 12.5 μM) was 90.3%, the “Percentage CD40L positive cells” value ([1]; CD4+ T cells with CA2 DD regulated CD40L construct, Acetazolamide 50 μM) was 91.1% and the “CD40L MFI” value ([1]; CD4+ T cells, Acetazolamide 0.2 μM) was 185. The “CD40L MFI” value ([1]; CD4+ T cells, Acetazolamide 0.8 μM) was 481, the “CD40L MFI” value ([1]; CD4+ T cells, Acetazolamide 3.1 μM) was 840 and the “CD40L MFI” value ([1]; CD4+ T cells, Acetazolamide 12.5 μM) was 2783. For the same molecule, the “CD40L MFI” value ([1]; CD4+ T cells, Acetazolamide 50 μM) was 3728, the “amount of Acetazolamide required to achieve stabilization of CD40L” value ([1]; CD4+ and CD8+ T cells) was “within the level of the ligand that can be achieved in humans” and the “CD40L MFI” value ([1]; CD8+ T cells with CA2 DD CD40L construct (OT-001990), Acetazolamide 0.01 μM) was 105. For the same molecule, the “Percentage CD40L positive cells” value ([1]; CD8+ T cells with CA2 DD regulated CD40L construct, Acetazolamide 0.01 μM) was 0.59%, the “Percentage CD40L positive cells” value ([1]; CD8+ T cells with CA2 DD regulated CD40L construct, Acetazolamide 0.05 μM) was 0.44% and the “Percentage CD40L positive cells” value ([1]; CD8+ T cells with CA2 DD regulated CD40L construct, Acetazolamide 0.2 μM) was 1.48%. The “Percentage CD40L positive cells” value ([1]; CD8+ T cells with CA2 DD regulated CD40L construct, Acetazolamide 0.8 μM) was 25.2%, the “Percentage CD40L positive cells” value ([1]; CD8+ T cells with CA2 DD regulated CD40L construct, Acetazolamide 3.1 μM) was 41.2% and the “Percentage CD40L positive cells” value ([1]; CD8+ T cells with CA2 DD regulated CD40L construct, Acetazolamide 12.5 μM) was 77.2%. The “Percentage CD40L positive cells” value ([1]; CD8+ T cells with CA2 DD regulated CD40L construct, Acetazolamide 50 μM) was 80.7%, the “CD40L MFI” value ([1]; CD8+ T cells, Acetazolamide 0.05 μM) was 104 and the “CD40L MFI” value ([1]; CD8+ T cells, Acetazolamide 0.2 μM) was 136. The “CD40L MFI” value ([1]; CD8+ T cells, Acetazolamide 0.8 μM) was 307, the “CD40L MFI” value ([1]; CD8+ T cells, Acetazolamide 3.1 μM) was 380 and the “CD40L MFI” value ([1]; CD8+ T cells, Acetazolamide 12.5 μM) was 1599. For the same molecule, the “CD40L MFI” value ([1]; CD8+ T cells, Acetazolamide 50 μM) was 2184.

B1: OT-001661: constitutive CD40L control; amino acid SEQ ID NO. 6067 and nucleic acid SEQ ID NO. 6068 (protein)
chain: MHMIETYNQTSPRSAATGLPISMKIFMYLLTVFLITQMIGSALFAVYLHRRLDKIEDERNLHEDFVFMKTIQRCNTGERSLSLLNCEEIKSQFEGFVKDIMLNKEETKKENSFEMQKGDQNPQIAAHVISEASSKTTSVLQWAEKGYYTMSNNLVTLENGKQLTVKRQGLYYIYAQVTFCSNREASSQAPFIASLCLKSPGRFERILLRAANTHSSAKPCGQQSIHLGGVFELQPGASVFVNVTDPSQVSHGTGFTSFGLLKL
notes: constitutive CD40L control; 6068
With B1 the MFI ([2]; All Cells) was 20451, the CD40L positive ([2]; CD4+ T cells) was 98.7% and the MFI ([2]; CD4+ T cells) was 24489. For the same molecule, the CD40L positive ([2]; CD8+ T cells) was 97.8%, the MFI ([2]; CD8+ T cells) was 14352 and the CD40L positive [3] was 98%. The “CD40L MFI” value ([4]; CD4+ T cells, 2 hours) was 4042, the “Percentage CD40L positive cells” value ([4]; CD4+ T cells, 2 hours) was 72.8% and the “CD40L MFI” value ([4]; CD4+ T cells, 4 hours) was 4651. For the same molecule, the “Percentage CD40L positive cells” value ([4]; CD4+ T cells, 4 hours) was 77%, the “CD40L MFI” value ([4]; CD4+ T cells, 6 hours) was 3156 and the “Percentage CD40L positive cells” value ([4]; CD4+ T cells, 6 hours) was 67.2%. The “CD40L MFI” value ([4]; CD4+ T cells, 24 hours) was 9491, the “Percentage CD40L positive cells” value ([4]; CD4+ T cells, 24 hours) was 93.3% and the “CD40L MFI” value ([4]; CD4+ T cells, 48 hours) was 5639. The “Percentage CD40L positive cells” value ([4]; CD4+ T cells, 48 hours) was 88.5%, the “CD40L MFI” value ([4]; CD8+ T cells, 2 hours) was 2212 and the “Percentage CD40L positive cells” value ([4]; CD8+ T cells, 2 hours) was 56.9%. The “CD40L MFI” value ([4]; CD8+ T cells, 4 hours) was 2994, the “Percentage CD40L positive cells” value ([4]; CD8+ T cells, 4 hours) was 63.2% and the “CD40L MFI” value ([4]; CD8+ T cells, 6 hours) was 1773. The “Percentage CD40L positive cells” value ([4]; CD8+ T cells, 6 hours) was 48.5%, the “CD40L MFI” value ([4]; CD8+ T cells, 24 hours) was 3563 and the “Percentage CD40L positive cells” value ([4]; CD8+ T cells, 24 hours) was 71.2%. For the same molecule, the “CD40L MFI” value ([4]; CD8+ T cells, 48 hours) was 2313, the “Percentage CD40L positive cells” value ([4]; CD8+ T cells, 48 hours) was 71.1% and the IFNg [5] was 1579.21 pg/mL. For the same molecule, the IL12 [5] was 58.88 pg/mL and the sCD40L (CD40L in HEK293T cells) was 2900 pg/mL.
